Measurements from the supplement of paper PMC9170038.

System: MS2 coat protein
Test: apparent KD of MS2 coat protein; designed switch direction (-1 OFF switch, 1 ON switch): 1; higher = weaker reporter binding
Summary of the method: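 For each design, the apparent KD is the median over clusters of curves fitted to normalised cluster fluorescence. Clusters held RNA switches with common flanks, transcribed on Illumina chips by stalled E. coli RNA polymerase. These were titrated with SNAP-549-labelled MS2 coat protein, doubling from 0.7 or 1.5 nM to 3 µM, without input, with 200 uM small-molecule ligand, or with an oligonucleotide input.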

[1] = input ligand: microRNA oligo, concentration not stated
[2] = Eterna round: R95, input ligand: FMN 200 uM
[3] = Eterna round: R95, input ligand: microRNA oligo, concentration not stated
[4] = Eterna round: R95, input ligand: none

Row | Sequence | apparent KD of MS2 coat protein (input ligand: FMN 200 uM) [nM] | apparent KD of MS2 coat protein [1] [nM] | apparent KD of MS2 coat protein (input ligand: none) [nM] | apparent KD of MS2 coat protein [2] [nM] | apparent KD of MS2 coat protein [3] [nM] | apparent KD of MS2 coat protein [4] [nM]
1 | UCGGGCGUACUUGCUGACAUGAGGAUCACCCAUGUAAAUGGGAAGGAUAUGGUUCCGUUUCGGUACCAGAAGGUCCUGGGUGCU [salish99_SSNG3_r04_310] (Eterna round: R96, puzzle: Same State NG 3) | 459 | 748 | 1030 | – | – | –
2 | GUAAGUUCGAUGCUCGUCUCUCCGUACAAACAUGAGGAUCACCCAUGUGAUCGGGAAGUAGCCCGAUCAGUAUGGCC [Teonveenes] (puzzle: Sensor for hsa-mir-208a) | – | – | – | 34.8 | 24.3 | 38.2
3 | CACAAUCUAUCUGAGGAUAUCAUGAAAAAAACAUGAGGAUCACCCAUGUGCAGGAAAACUGCAUAUGAGAAGGCAGAUAGAUUGG [salish99_SS2_r3_014] (Eterna round: R96, puzzle: Same State 2) | – | 504 | – | – | – | –
4 | GGAGCCGGCACCGAGGAUAUUCAUAUUAAAACAUGAGGAUCACCCAUGUAGGUCGAAAGACCUUGGGAGAAGGCGGAUCGGCUCG [Xeonanis - 30] (puzzle: Same State 2) | – | – | – | 38.3 | 518 | 803
5 | CGUCCGGCCUGUGCUGGACGGAAGCAUGUACAUGAGGAUCACCCAUGUUCAUGUGCAGGCUUUUUGCUCGUCUUGUG [salish99_mir208a_modof_jandersonlee_005] (puzzle: Sensor for hsa-mir-208a) | – | – | – | 102 | 13.4 | 117
6 | GCUCGAUGAGCUGUUUACAUGAGGAUCACCCAUGUAAAUGGGCAGGAUAUUUACGUGCUUUGUGUAGAGAAGGGCCCAUCGAGC [SameState NG3 #76] (Eterna round: R96, puzzle: Same State NG 3) | 32.4 | 103 | 235 | – | – | –
7 | AACCGACAUGAGGAUCACCCAUGUAAAUGCAGGGCAGGAUAUCAAUCGGGAGGCCGAAAAUGAGAAGGGCCUAAAA [Onedte] (puzzle: Same State 1) | – | – | – | 46.9 | 250 | 839
8 | UUUUUUUUUUCGAGACAAGCUUUUUGAUCACAUGAGGAUCACCCAUGUCUCGUCUUAUUUUUUUUUUUUUUUUUUUU [BA Sensor hsa-mir-208a - 2 - 1] (puzzle: Sensor for hsa-mir-208a) | – | – | – | 343 | 33.6 | 21.3
9 | GCUACCAAAGAAGCCAACAUGAGGAUCACCCAUGUAUGUUGGCAGGAUAUCGAUUGCAAAGCGAUCGAGAAGGGCUAAGGUAGC [Mat - Same State NG 3 - JL Mod - D88] (Eterna round: R96, puzzle: Same State NG 3) | 147 | 214 | 204 | – | – | –
10 | AAUUAAGAUUAAGGAUAUCACGUCGUUUAGACGUGAGAAGGUGAUCAUAACAUGAGGAUCACCCAUGUAUUACAUGAAUUAAUU [SSNG1/3-B3] (Eterna round: R96, puzzle: Same State NG 1) | 1040 | 284 | 1190 | – | – | –
11 | ACCCGCGGGCCACAUGAGGAUCACCCAUGUGACCGGUGAUCCAAGGAUAUGUGUAGGGUAGAUGCACAGAAGGUGGCCAAAACU [Ainriqu] (Eterna round: R96, puzzle: Same State NG 3) | 26.6 | 14.8 | 18.5 | – | – | –
12 | UUGAGGAAUUAAGGAUAUUGAGUACAUAUGUUUAACAUGAGGAUCACCCAUGUGGGUUGCGGUAUCGAGAAGGUAAAUUACUAC [salish99_SSNG2_r04_801] (Eterna round: R96, puzzle: Same State NG 2) | 113 | 73.2 | 120 | – | – | –
13 | GGAAUAUUUACAGGAUAUGUUUUGUUAAGUCGAGCAGAAGGGUGGAUGUCUUACACGGUUUGUUACAUGAGGAUCACCCAUGUC [SameState NG1 #15] (Eterna round: R96, puzzle: Same State NG 1) | – | 188 | – | – | – | –
14 | GGAGCCGGCACCGAGGAUAUUCAUAUUAAAACAUGAGGAUCACCCAUGUAGAGCGAAAGCUCUUGGGAGAAGGCGGAUCGGCUCG [Xeonanis - 28] (puzzle: Same State 2) | – | – | – | 34.1 | 672 | 1060
15 | AGAUCAUGACGAGGAUAUGGUACAUGAGGAUCACCCAUGUAUGUACUAUAACCCGAAUGAGGAAUCCAGAAGGCGUCGUGGUCA [JL SSNG2 1.13] (Eterna round: R96, puzzle: Same State NG 2) | 24.4 | 56.3 | 93 | – | – | –
16 | GUAGCAUACCGAGGAUAUUCAUAUAAUAAAUAAACAUGAGGAUCACCCAUGUGGCGAAAGCCUUGGGAGAAGGCGGAAUGCUAC [Xeonanis - 20 Mod55] (Eterna round: R96, puzzle: Same State NG 2) | 20.7 | 296 | 486 | – | – | –
17 | GCAAACACAUGAGGAUCACCCAUGUGGAAAGAGCAAUUAGGCUAGGAUAUUCAUGUCGUUUGCAAGAAGAAGGAGCCAUAGUGG [Eternabot solution 20] (Eterna round: R96, puzzle: Same State NG 3) | – | 205 | – | – | – | –
18 | CCUUAACAUGAGGAUCACCCAUGUAACAAGGAGUAAGGAUAUACAUGGGAAAACAGUCAUGUAGAAGGUACAAAAG [Rexereon] (puzzle: Same State 1) | – | – | – | 15 | 11.8 | 18
19 | UGUUAUUAGACAGGAUAUUGAAUGUUAAGUAUUAACAUGAGGAUCACCCAUGUAUUUGAUUGGUACAAGAAGGGUCAUGUUUGU [JR_SSNG2_Sub015] (Eterna round: R96, puzzle: Same State NG 2) | – | 303 | – | – | – | –
20 | UUAAUGAUGUUAGGAUAUACAUGAGGAAUCCUCGUAGAAGGAACAUGACAUGAGGAUCACCCAUGUAGCGCUCCGUAGAGCGCA [JL SSNG1 1.18] (Eterna round: R96, puzzle: Same State NG 1) | 2460 | 18.5 | 60.3 | – | – | –
21 | GCGGAGAGGUAAGGAUAUCCAUGGCAUAGACAUGAGGAUCACCCAUGUAGGAGACGAAUUAGGAGGGAGAAGGUACCGGGACGC [AK SSNG2-V2-19.1] (Eterna round: R96, puzzle: Same State NG 2) | 120 | 81.2 | 179 | – | – | –
22 | AUUAAACAUGAGGAUCACCCAUGUCAACAAAGUCGAGGAUAUGGGCAUAUUAUAUAAUAACCAGAAGGCGAAUAAU [salish99_ss1_r3_084] (puzzle: Same State 1) | – | – | – | 11.1 | 12.8 | 13.8
23 | AGAAGACAUGAGGAUCACCCAUGUACCUCAUAAGGAGAGAGCGAGGAUAUGUAGAGAGAGAGGGAGCAGAAGGUGUGGGAGGAA [Default title] (Eterna round: R96, puzzle: Same State NG 3) | 283 | 192 | 262 | – | – | –
24 | UGGCUCAGACGAGGAUAUAUGCGAUCACAUGAGGAUCACCCAUGUCUCGAGCUUCGGCUCGAGGCAUAGAAGGCGUCUGAGCCU [SSNG2/4-A3] (Eterna round: R96, puzzle: Same State NG 2) | 13 | 25.9 | 27.7 | – | – | –
25 | GUGGUCAAUCAAGGAUAUGGAGCCUUAUUGGCUCCAGAAGGUGGGACAUGAGGAUCACCCAUGUGGCAGUGGUCAAAUGACCAC [Fiskers NG1ss - 34] (Eterna round: R96, puzzle: Same State NG 1) | 149 | 172 | 164 | – | – | –
26 | AUAGUUUCCGAAGGAUAUGAUGAGGAUCACCCAUCAGAAGGUUGGCUAUUGGGCUGACAUGAGGAUCACCCAUGUUCUGGUGUU (Eterna round: R96, puzzle: Same State NG 1) | 39.1 | 33.2 | 57 | – | – | –
27 | ACAAGCUUUUUAGGAAGAGAAGAAAGGGAACAUGAGGAUCACCCAUGUAAGUGGAAUGAAGAAGGAGCACGUCUUAU [JR_SHM208A_Sub096] (puzzle: Sensor for hsa-mir-208a) | – | – | – | 54.2 | 17.5 | 61
28 | AACAUGAGGAUCACCCAUGUCAGGCCGCCGGCCUACAUGAGGAAGGAUAUAGCCUCGAAAAUUGGCUAGAAGGUCCUCAUGAAU [Letemaar] (Eterna round: R96, puzzle: Same State NG 3) | 115 | 4.24 | 26.1 | – | – | –
